Assay results published in patent publication US6072039, “Hybrid polypeptide comparing a biotinylated avidin binding polypeptide fused to a polypeptide of interest” (Rohm and Haas Company, dated 2000).

How the values were obtained:
[1] = target: T1, avidin monomer affinity resin (Gallus gallus (Chicken), UniProt P02701); experiment: avidin monomer affinity column, formic acid cleavage mixture; by Procedure XI the polypeptide of interest is not retained and is collected in the column flowthrough
Method: (§1) The crude extract is applied to a 4 mm×5 cm column packed with avidin monomer affinity resin (U.S. Ser. No. 414,785) on a LKB HPLC system equipped with two Model 2150 pumps, Model 2152 controller, and a Model 2140 spectral detector. Sample absorbance is monitored at 280 nm. The crude extract is applied in 100 mM potassium phosphate buffer, pH 6.8 to 7.2 (or other appropriate buffer at a pH of 4.0 to 11.0) at a flow rate of 0.1 ml/min to a column equilibrated with the same buffer. After the sample is loaded, the column is washed with phosphate buffer at a flow rate of 1 ml/min until absorbance returned to the baseline absorbance, and all nonbound material is washed from the resin. The column is then equilibrated with water, followed by application of 5 ml of 2M NaCl. The column is reequilibrated with water. This same NaCl-water wash procedure is repeated four to five times. The sample is eluted using acetic acid or biotin, as detailed in Procedure IX.
Procedure XI. Separation of the Polypeptide of Interest from the Polypeptide for Attachment The dried polypeptide mixture is resuspended in avidin monomer column loading buffer, 100 mM phosphate buffer pH 6.8–7.2, or other appropriate buffer at a pH of between 4.0 and 11.0. Highly pure polypeptide of interest is obtained by passing the cleaved polypeptide mixture over the avidin resin using the procedure described above. […]

[2] = target: T1, avidin monomer affinity resin; experiment: avidin monomer affinity column, cyanogen bromide cleavage mixture; by Procedure XI the polypeptide of interest is not retained and is collected in the column flowthrough
Method: as §1
The hybrid polypeptide is dissolved in 70% (v/v) aqueous formic acid at 23° C. A 50 molar excess of cyanogen bromide is added in a small volume of 70% formic acid, with stirring. The mixture is incubated in the dark under nitrogen at 20–25° C. for 16 to 24 hours. The mixture is then diluted with 10 volumes of water and freeze-dried. Highly pure polypeptide of interest is obtained by Procedure VIII.
Procedure XI. […]

Binder | binding result [1] | binding result [2]
PMYGGFLTSEKSQTPLVTLFKNAIIKNAYKKGE [β-endorphin cleaved from the 1.3S:β-endorphin hybrid by formic acid (Example 2)] | no binding | 
YGGFLTSEKSQTPLVTLFKNAIIKNAYKKGE [β-endorphin cleaved from the hybrid polypeptide by cyanogen bromide (Examples 3 and 6)] |  | no binding
